Source: patent US20040208880A1 (University of Texas, published 2004)

T1: estrogen receptor alpha (ER), full-length (UniProt P03372 1-595)
T1 construct: Used as in vitro translated 35S-labeled full-length ER and as the endogenous ER of human cell lines (Ishikawa, MCF-7 derivatives); also called ERα; ERá
T1 sequence (looked up): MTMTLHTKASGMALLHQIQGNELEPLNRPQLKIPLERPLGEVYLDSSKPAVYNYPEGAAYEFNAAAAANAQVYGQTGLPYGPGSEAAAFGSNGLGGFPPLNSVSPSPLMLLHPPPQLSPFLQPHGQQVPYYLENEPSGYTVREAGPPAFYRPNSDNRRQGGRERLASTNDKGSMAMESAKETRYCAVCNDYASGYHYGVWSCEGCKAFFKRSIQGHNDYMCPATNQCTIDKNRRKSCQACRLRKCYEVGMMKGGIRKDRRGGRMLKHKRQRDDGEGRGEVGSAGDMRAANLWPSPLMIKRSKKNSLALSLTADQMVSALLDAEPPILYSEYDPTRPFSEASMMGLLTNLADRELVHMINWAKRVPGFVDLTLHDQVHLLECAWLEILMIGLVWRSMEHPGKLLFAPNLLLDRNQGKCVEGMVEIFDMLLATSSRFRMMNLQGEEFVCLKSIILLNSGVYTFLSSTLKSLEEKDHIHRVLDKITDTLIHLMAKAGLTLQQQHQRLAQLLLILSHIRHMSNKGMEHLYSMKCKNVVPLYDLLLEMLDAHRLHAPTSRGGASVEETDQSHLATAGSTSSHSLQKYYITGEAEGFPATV


Assays:
[1] = molecular target: T2, dynein light chain-1/protein inhibitor of nitric oxide synthase (DLC1/PIN), amino acids 1-89 (human, UniProt P63167 1-89); experiment: immunoprecipitation with HA antibody from Tet on-HA-Pak1-T423E MCF-7 cells, immunoblot
T2 construct: Used both as in vitro translated 35S-labeled protein (aa 1-89) and as the endogenous protein of human cell lines (MCF-7, Ishikawa)

[2] = molecular target: T1, estrogen receptor alpha (ER), …; experiment: immunoprecipitation with anti-Pak1 Ab, immunoblot with ERα Ab
[3] = molecular target: T2, dynein light chain-1/protein inhibitor …; experiment: GST pull-down with in vitro translated DLC1/PIN
[4] = molecular target: T1, estrogen receptor alpha (ER), …; experiment: GST pull-down with in vitro translated 35S-ER

| Binder | binding result [3] | further results |
| --- | --- | --- |
| HA-tagged T423E Pak1 (catalytically active Pak1) (enzyme, Expressed in MCF-7 cells under a Tet-on promoter; also called HA-Pak1-T423E; not shown: HA tag) MSNNGLDIQDKPPAPPMRNTSTMIGVGSKDAGTLNHGSKPLPPNPEEKKKKDRFYRSILPGDKTNKKKEKERPEISLPSDFEHTIHVGFDAVTGEFTGMPEQWARLLQTSNITKSEQKKNPQAVLDVLEFYNSKKTSNSQKYMSFTDKSAEDYNSSNALNVKAVSETPAVPPVSEDEDDDDDDATPPPVIAPRPEHTKSVYTRSVIEPLPVTPTRDVATSPISPTENNTTPPDALTRNTEKQKKKPKMSDEEILEKLRSIVSVGDPKKKYTRFEKIGQGASGTVYTAMDVATGQEVAIKQMNLQQQPKKELIINEILVMRENKNPNIVNYLDSYLVGDELWVVMEYLAGGSLTDVVTETCMDEGQIAAVCRECLQALEFLHSNQVIHRDIKSDNILLGMDGSVKLTDFGFCAQITPEQSKRSEMVGTPYWMAPEVVTRKAYGPKVDIWSLGIMAIEMIEGEPPYLNENPLRALYLIATNGTPELQNPEKLSAIFRDFLNRCLDMDVEKRGSAKELLQHQFLKIAKPLSSLTPLIAAAKEATKNNH | – | binding result [1]: binds |
| p21-activated protein kinase 1 (Pak1), full-length, amino acids 1-545 (enzyme, Used both as in vitro translated 35S-labeled full-length protein and as the endogenous protein of human cell lines) MSNNGLDIQDKPPAPPMRNTSTMIGVGSKDAGTLNHGSKPLPPNPEEKKKKDRFYRSILPGDKTNKKKEKERPEISLPSDFEHTIHVGFDAVTGEFTGMPEQWARLLQTSNITKSEQKKNPQAVLDVLEFYNSKKTSNSQKYMSFTDKSAEDYNSSNALNVKAVSETPAVPPVSEDEDDDDDDATPPPVIAPRPEHTKSVYTRSVIEPLPVTPTRDVATSPISPTENNTTPPDALTRNTEKQKKKPKMSDEEILEKLRSIVSVGDPKKKYTRFEKIGQGASGTVYTAMDVATGQEVAIKQMNLQQQPKKELIINEILVMRENKNPNIVNYLDSYLVGDELWVVMEYLAGGSLTDVVTETCMDEGQIAAVCRECLQALEFLHSNQVIHRDIKSDNILLGMDGSVKLTDFGFCAQITPEQSKRSTMVGTPYWMAPEVVTRKAYGPKVDIWSLGIMAIEMIEGEPPYLNENPLRALYLIATNGTPELQNPEKLSAIFRDFLNRCLDMDVEKRGSAKELLQHQFLKIAKPLSSLTPLIAAAKEATKNNH | – | binding result [2]: binds |
| GST-Pak1 N-terminal domain (amino acids 1-132) (other, not shown: glutathione-S-transferase (GST) fusion partner) MSNNGLDIQDKPPAPPMRNTSTMIGVGSKDAGTLNHGSKPLPPNPEEKKKKDRFYRSILPGDKTNKKKEKERPEISLPSDFEHTIHVGFDAVTGEFTGMPEQWARLLQTSNITKSEQKKNPQAVLDVLEFYN | no binding | – |
| GST-Pak1 Cdc42/Rac-interacting (CRIB) domain (other, not shown: glutathione-S-transferase (GST) fusion partner) ISLPSDFEHTIHVGFDAVTGEFTGMPEQWARLLQTSNITKSEQKKNPQAVLDVLEFYNSKKTSNSQKYMSFTDKS | no binding | – |
| GST-Pak1 auto inhibitory domain (other, not shown: glutathione-S-transferase (GST) fusion partner) RFYRSILPGDKTNKKKEKERPEISLPSDFEHTIHVGFDAVTGEFTGMPEQWARLLQTSNITKSEQKKNPQAVLDVLEFYN | no binding | – |
| GST-DLC1 deletion construct lacking the C-terminal amino acids 67-89 (other, not shown: GST fusion partner at the N end and any linker to it) MCDRKAVIKNADMSEEMQQDSVECATQALEKYNIEKDIAAHIKKEFDKKYNPTWHCIVGRNFGSYV | – | binding result [4]: no binding |
